From US20230391876A1 (HANALL BIOPHARMA, published 2023)

B1: HL161AN variant No. 11 (LC:N25S, HC:C32Y Q82E) (antibody, V domains shown)
VL: SYVLTQPPSVSVAPGQTARITCGGSNIGSTSVHWYQQKPGQAPVLVVHDDSDRPSGIPERFSGSNSGNTATLTISRVEAGDEADYYCQVRDSSSDHVIFGGGTKLTVLGQPKAAPSVTL
VH: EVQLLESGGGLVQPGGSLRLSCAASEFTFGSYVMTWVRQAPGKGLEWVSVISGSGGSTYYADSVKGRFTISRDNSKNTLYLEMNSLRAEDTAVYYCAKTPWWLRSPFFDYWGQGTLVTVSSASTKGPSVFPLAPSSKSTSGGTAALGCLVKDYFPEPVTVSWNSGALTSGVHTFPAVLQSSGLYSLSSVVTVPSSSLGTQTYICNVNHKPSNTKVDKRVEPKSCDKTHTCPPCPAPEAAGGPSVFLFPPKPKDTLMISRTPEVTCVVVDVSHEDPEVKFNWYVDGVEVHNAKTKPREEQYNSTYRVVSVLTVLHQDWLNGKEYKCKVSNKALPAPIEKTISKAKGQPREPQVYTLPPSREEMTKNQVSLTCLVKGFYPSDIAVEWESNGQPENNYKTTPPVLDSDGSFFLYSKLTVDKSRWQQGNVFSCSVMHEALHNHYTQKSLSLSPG
notes: also called HL161ANSYE; copies: 2 + 2
B2: HL161AN variant No. 8 (LC:N25S, HC:C32S Q82E) (antibody, V domains shown)
VL: SYVLTQPPSVSVAPGQTARITCGGSNIGSTSVHWYQQKPGQAPVLVVHDDSDRPSGIPERFSGSNSGNTATLTISRVEAGDEADYYCQVRDSSSDHVIFGGGTKLTVLGQPKAAPSVTL
VH: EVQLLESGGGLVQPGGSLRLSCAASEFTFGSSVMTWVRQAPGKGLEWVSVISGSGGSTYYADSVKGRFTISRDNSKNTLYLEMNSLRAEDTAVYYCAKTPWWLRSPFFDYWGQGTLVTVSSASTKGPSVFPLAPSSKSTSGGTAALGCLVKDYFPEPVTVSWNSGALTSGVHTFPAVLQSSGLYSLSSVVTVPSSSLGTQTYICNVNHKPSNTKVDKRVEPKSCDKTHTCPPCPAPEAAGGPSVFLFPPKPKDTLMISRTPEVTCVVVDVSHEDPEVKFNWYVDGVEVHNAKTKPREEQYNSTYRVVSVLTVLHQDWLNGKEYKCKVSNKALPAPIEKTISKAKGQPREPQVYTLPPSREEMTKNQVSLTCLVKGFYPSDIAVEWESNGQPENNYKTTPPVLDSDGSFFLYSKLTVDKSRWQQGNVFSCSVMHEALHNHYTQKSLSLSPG
notes: also called HL161ANSE; copies: 2 + 2
B3: HL161AN variant No. 13 (LC:N25Q, HC:C32Y) (antibody, V domains shown)
VL: SYVLTQPPSVSVAPGQTARITCGGQNIGSTSVHWYQQKPGQAPVLVVHDDSDRPSGIPERFSGSNSGNTATLTISRVEAGDEADYYCQVRDSSSDHVIFGGGTKLTVLGQPKAAPSVTL
VH: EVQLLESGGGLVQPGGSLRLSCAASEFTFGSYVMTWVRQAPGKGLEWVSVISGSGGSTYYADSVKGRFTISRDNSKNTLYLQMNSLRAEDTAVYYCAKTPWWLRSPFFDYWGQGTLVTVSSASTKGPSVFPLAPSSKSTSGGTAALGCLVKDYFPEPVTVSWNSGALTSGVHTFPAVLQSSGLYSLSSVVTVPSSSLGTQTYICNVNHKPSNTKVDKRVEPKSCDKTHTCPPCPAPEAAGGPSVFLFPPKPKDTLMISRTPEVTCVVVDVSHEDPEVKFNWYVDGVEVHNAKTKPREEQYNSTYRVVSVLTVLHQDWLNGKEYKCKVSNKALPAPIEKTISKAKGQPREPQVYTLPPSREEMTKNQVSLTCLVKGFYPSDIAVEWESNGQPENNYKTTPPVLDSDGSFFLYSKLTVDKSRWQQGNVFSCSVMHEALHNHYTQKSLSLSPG
notes: also called HL161ANQY; copies: 2 + 2
B4: HL161AN variant No. 22 (LC:N25Q, HC:C32Y Q82E) (antibody, V domains shown)
VL: SYVLTQPPSVSVAPGQTARITCGGQNIGSTSVHWYQQKPGQAPVLVVHDDSDRPSGIPERFSGSNSGNTATLTISRVEAGDEADYYCQVRDSSSDHVIFGGGTKLTVLGQPKAAPSVTL
VH: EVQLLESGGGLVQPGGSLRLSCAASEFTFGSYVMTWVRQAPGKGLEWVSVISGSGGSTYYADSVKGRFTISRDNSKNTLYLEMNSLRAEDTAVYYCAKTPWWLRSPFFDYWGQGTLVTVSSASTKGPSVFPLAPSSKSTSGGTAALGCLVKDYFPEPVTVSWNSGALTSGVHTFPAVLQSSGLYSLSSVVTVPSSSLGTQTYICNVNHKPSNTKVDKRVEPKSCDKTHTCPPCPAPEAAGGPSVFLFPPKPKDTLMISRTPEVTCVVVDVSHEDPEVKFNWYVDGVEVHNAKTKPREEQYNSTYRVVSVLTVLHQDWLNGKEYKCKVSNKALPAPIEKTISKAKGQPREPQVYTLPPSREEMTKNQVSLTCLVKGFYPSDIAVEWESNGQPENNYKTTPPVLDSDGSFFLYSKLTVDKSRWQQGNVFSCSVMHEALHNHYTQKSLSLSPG
notes: also called HL161ANQYE; copies: 2 + 2
B5: HL161AN variant No. 2 (LC:N25S, HC:C32Y) (antibody, V domains shown)
VL: SYVLTQPPSVSVAPGQTARITCGGSNIGSTSVHWYQQKPGQAPVLVVHDDSDRPSGIPERFSGSNSGNTATLTISRVEAGDEADYYCQVRDSSSDHVIFGGGTKLTVLGQPKAAPSVTL
VH: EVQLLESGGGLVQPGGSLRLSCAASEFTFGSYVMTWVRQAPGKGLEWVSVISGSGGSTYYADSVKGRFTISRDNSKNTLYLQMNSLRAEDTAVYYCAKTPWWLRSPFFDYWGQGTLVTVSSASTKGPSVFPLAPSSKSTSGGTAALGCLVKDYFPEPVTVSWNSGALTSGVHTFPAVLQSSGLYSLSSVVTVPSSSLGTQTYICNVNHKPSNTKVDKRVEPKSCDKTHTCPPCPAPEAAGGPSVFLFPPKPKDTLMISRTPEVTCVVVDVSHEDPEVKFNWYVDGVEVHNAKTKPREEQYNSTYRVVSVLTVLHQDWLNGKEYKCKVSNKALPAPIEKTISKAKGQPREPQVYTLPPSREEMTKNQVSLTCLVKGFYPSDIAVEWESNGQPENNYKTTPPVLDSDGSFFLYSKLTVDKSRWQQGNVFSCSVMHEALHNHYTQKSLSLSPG
notes: also called HL161ANSY; copies: 2 + 2

Key:
[1] = biological target: T1, shFcRn (soluble human FcRn) (human, UniProt P55899 24-297; P61769 21-119); assay: SPR, shFcRn immobilized on chip, antibody as analyte, pH 6.0;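 also: kinetics fitted with a 1:1 Langmuir model, association 200 s and dissociation 600 s, samples diluted in PBST, double-referenced signals, values averaged across three shFcRn-coated cells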
T1 construct: extracellular domain; Printed only as 'soluble human FcRn'; also called hFcRn (immobilized on a chip)
T1 sequence (P55899 24-297 limits assumed, chain 1 of 2): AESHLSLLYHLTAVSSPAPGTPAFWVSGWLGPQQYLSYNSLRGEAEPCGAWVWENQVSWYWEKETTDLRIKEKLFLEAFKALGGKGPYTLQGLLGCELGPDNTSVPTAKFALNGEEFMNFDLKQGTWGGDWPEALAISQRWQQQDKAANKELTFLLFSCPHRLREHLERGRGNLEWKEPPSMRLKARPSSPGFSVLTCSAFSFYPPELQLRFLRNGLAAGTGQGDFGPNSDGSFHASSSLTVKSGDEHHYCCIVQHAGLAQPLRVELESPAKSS
T1 sequence (P61769 21-119 limits assumed, chain 2 of 2): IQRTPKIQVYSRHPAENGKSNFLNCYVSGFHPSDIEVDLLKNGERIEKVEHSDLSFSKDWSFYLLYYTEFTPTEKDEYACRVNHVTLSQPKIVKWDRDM
Experimental: (§1) Kinetic analysis was performed using a 1:1 Langmuir binding model, and the average KD value was obtained by repeating the analysis 6 times in each condition of pH 6.0 and pH 7.4.
(§2) Chip activation was performed under EDAC/NHS 0.5×, 30 μL/min, and 300 sec conditions. Thereafter, shFcRn was prepared at 2 μg/mL, 250 μL using an acetate buffer (pH 5.5), and immobilization was performed while flowing at 30 μL/min. The reaction was stopped when the immobilization level corresponded to 200 RU to 300 RU. Thereafter, deactivation was performed using ethanolamine at 30 μL/min, 300 sec. […] Sample dilution was performed using 1×PBST (pH 7.4) or 1×PBST (pH 6.0) buffer depending on the analysis pH. In the sample analysis conditions, association was carried out by reaction at 50 μL/min, 200 sec, and dissociation was carried out by reaction at 50 μL/min, 600 sec. Thereafter, reaction was carried out using a glycine buffer (pH 2.0) at 100 μL/min, 18 sec to perform regeneration. For kinetic analysis, samples were prepared and reacted once in three cells to which shFcRn was immobilized. Then three kinetic values were obtained, and then an average KD value was measured. When analyzing reaction signals, interspot-referencing and signals in which only buffer was analyzed were used for a double-referencing.

[2] = biological target: T2, hFcRn on hFcRn-expressing HEK293 cells (human, UniProt P55899 24-365; P61769 21-119); assay: FACS on hFcRn HEK293 cells, pH 6.0, high concentration sample; head prints 'FACS binding (EC50, nM)', taken as blocking of competitor Alexa488-hIgG1 (Example 5.5)
T2 construct: whole, on cells; also called hFcRn HEK293
T2 sequence (P55899 24-365 limits assumed, chain 1 of 2): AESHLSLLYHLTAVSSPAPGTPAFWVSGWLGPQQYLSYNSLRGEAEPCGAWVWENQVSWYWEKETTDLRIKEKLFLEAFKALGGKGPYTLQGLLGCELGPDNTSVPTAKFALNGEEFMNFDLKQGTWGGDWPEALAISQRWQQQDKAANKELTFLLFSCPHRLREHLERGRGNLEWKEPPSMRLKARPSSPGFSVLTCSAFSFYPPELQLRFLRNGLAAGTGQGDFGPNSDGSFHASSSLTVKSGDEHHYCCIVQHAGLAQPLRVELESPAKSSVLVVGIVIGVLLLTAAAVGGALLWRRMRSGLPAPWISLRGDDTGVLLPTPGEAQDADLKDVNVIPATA
T2 sequence (P61769 21-119 limits assumed, chain 2 of 2): as the sequence (P61769 21-119 limits assumed, chain 2 of 2) above
Experimental: (§3) 1×10⁷ hFcRn HEK293 cells were seeded into a T75 flask and cultured for 24 hours. After culturing, the cells were removed and placed in a 96 well plate at 1×10⁵ cells for each sample in duplicate. […] After the reaction was completed, it was centrifuged to remove the supernatant. 200 μL of the reaction buffer was added to resuspend the cell pellet, and then the MFI value was measured in a FACS instrument.
The evaluation of hFcRn blocking was performed at 0.1 nM, 1 nM, 10 nM, and 100 nM using FACS.

[3] = biological target: T2, hFcRn on hFcRn-expressing HEK293 cells; assay: FACS on hFcRn HEK293 cells, 10 nM antibody, pH 6.0, high concentration sample
Experimental: (§4) The analysis of hFcRn binding using FACS was carried out under two conditions of pH 6.0 and pH 7.4. hFcRn-expressing 1TEK293 (hFcRn HEK293) cells were diluted with the reaction buffer (0.0500 BSA in PBS, pH 6.0 or pH 7.4) and prepared in duplicate in a 96 well plate at 1×10⁵ cells for each sample. In addition, each antibody sample was diluted with the reaction buffer to 10 nM, and then put into a 96 well plate, and incubated at 4° C. for 90 minutes. Thereafter, the plate was centrifuged to remove the supernatant, and then Alexa488-goat anti-hIgG Ab (1:200) was added thereto, and again incubated at 4° C. for 90 minutes. After the reaction was completed, it was centrifuged to remove the supernatant, and 200 μL of the reaction buffer was added to resuspend the cell pellet, and then the MFI value was measured in a FACS instrument.

[4] = biological target: T2, hFcRn on hFcRn-expressing HEK293 cells; assay: FACS on hFcRn HEK293 cells, 10 nM antibody, pH 7.4, high concentration sample
Experimental: as §4

[5] = biological target: T2, hFcRn on hFcRn-expressing HEK293 cells; assay: FACS on hFcRn HEK293 cells, 10 nM antibody, pH 7.4
Experimental: as §4

[6] = biological target: T1, shFcRn (soluble human FcRn); assay: SPR, shFcRn immobilized on chip, antibody as analyte, pH 7.4;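 also: kinetics fitted with a 1:1 Langmuir model, association 200 s and dissociation 600 s in PBST, double-referenced against buffer-only and interspot signals, values averaged over repeated runs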
Experimental: as §1, §2

[7] = biological target: T1, shFcRn (soluble human FcRn); assay: SPR, hFcRn immobilized on chip, pH 6.0
Experimental: as §1, §2

[8] = biological target: T2, hFcRn on hFcRn-expressing HEK293 cells; assay: FACS on hFcRn HEK293 cells, pH 6.0; head prints 'FACS binding (EC50, nM)', taken as blocking of competitor Alexa488-hIgG1 (Example 4.5)
Experimental: as §3

[9] = biological target: T2, hFcRn on hFcRn-expressing HEK293 cells; assay: FACS on hFcRn HEK293 cells, 10 nM antibody, pH 6.0
Experimental: as §4

[10] = biological target: T1, shFcRn (soluble human FcRn); assay: SPR, hFcRn immobilized on chip, pH 7.4
Experimental: as §1, §2

Binder	Kd [1]	koff [1]	kon [1]	EC50 [2]	MFI [3]	MFI [4]	MFI [5]	Kd [6]	koff [6]	kon [6]	Kd [7]	EC50 [8]	MFI [9]	Kd [10]
B1	0.19 nM	0.000486 s⁻¹	2.56e+06 M⁻¹ s⁻¹	0.62 nM	3450 MFI	6570 MFI	6320 MFI	0.262 nM	0.000487 s⁻¹	1.86e+06 M⁻¹ s⁻¹	0.14 nM	1.36 nM	2580 MFI	0.28 nM
B2	0.158 nM	0.000477 s⁻¹	3.02e+06 M⁻¹ s⁻¹	0.6 nM	3130 MFI	7060 MFI	6760 MFI	0.218 nM	0.000496 s⁻¹	2.27e+06 M⁻¹ s⁻¹	0.14 nM	1.47 nM	2830 MFI	0.28 nM
B3	0.2 nM	0.000556 s⁻¹	2.77e+06 M⁻¹ s⁻¹	0.66 nM	3330 MFI	7940 MFI	6730 MFI	0.236 nM	0.000444 s⁻¹	1.88e+06 M⁻¹ s⁻¹	0.21 nM	1.38 nM	2600 MFI	0.32 nM
B4	0.264 nM	0.000522 s⁻¹	1.98e+06 M⁻¹ s⁻¹	0.71 nM	3020 MFI	7080 MFI	5860 MFI	0.381 nM	0.000647 s⁻¹	1.7e+06 M⁻¹ s⁻¹	0.21 nM	1.3 nM	2390 MFI	0.3 nM
B5	0.149 nM	0.000433 s⁻¹	2.91e+06 M⁻¹ s⁻¹	0.54 nM	3410 MFI	7000 MFI	6200 MFI	0.207 nM	0.000435 s⁻¹	2.1e+06 M⁻¹ s⁻¹	0.1 nM	1.27 nM	2500 MFI	0.2 nM
